# Results taken from the nanobody polyreactivity screen of Harvey et al. (2022).
# Assay: yeast display, Sf9 membrane polyspecificity reagent, FACS + sequencing; frameworks hold sequencing errors
# Procedure, shortened: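 Galactose induction of a Saccharomyces cerevisiae BJ5465 synthetic nanobody display library ran 36–48 hours. The cells were then stained for 1 hour at 4 °C with 10% biotinylated, detergent-solubilized Sf9 membrane reagent, pulled down on streptavidin microbeads and FACS-sorted into low and high (top ~1%) gates on expression and reagent-binding fluorescence. Labels for polyreactivity follow the gate of origin.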
row,Sequence,polyreactivity (PSR sort gate)
1,QVQLVESGGGLVQAGGSLRLSCAASGSTFAANAMGWYRQAPGKERELVAAITGSGGGTYYADSVKGRFTISRDNAKNTVYLQMNSLKPEDTAVYYCNTYYYWQYDWGQGTQVTVSS,high polyreactivity
2,QVQLVESGGGLVQAGGSLRLSCAASGSTFAANAMGWYRQAPGKERELVAGISESGDRTYADSVKGRFTISRDNPKNTVYLQMNSLKPEDTAVYYCNVGANVYLLYFPSRGGVYDYGYWGQGTQVTVSS,low polyreactivity
3,QVQLVESGGGLVQAGGSLRLSCAASGSTFAANPMGWYRQAPGKERELVAAITSSGGSTYYADSVKGRFTISRDNAKNTVYLQMNSLKPEDTEVYYCNKDIERYVRIYDSWGQGTQVTVSS,low polyreactivity
4,QVQLVESGGGLVQAGGSLRLSCAASGSTFAASVMGWYRQAPVKERELVAAISTSGGGTYYADSVKGRFTISRDNAKNTVYLQMNSLIPEDTAVYYCAADYGSGSVSYDYWGQGTQVTVSS,low polyreactivity
5,QVQLVESGGGLVQAGGSLRLSCAASGSTFAAYVMGWYRQAPGKERELVAAISTSGGRTYYADSVKGRFTISRDNAMNTVYLQMNSLIPEDTAVYYCAKKRINSRKYDYWGQGTQVNVSS,low polyreactivity
6,QVQLVESGGGLVQAGGSLRLSCAASGSTFAEYAMGWYRQAPGKERELVAAIRWSGGSTSYADSVKGRFTISRDNAKNTVYLQMNSLKPEDTAVYYCAAERFWYDGEVKLYVLSYYWGQGTQVTVSS,low polyreactivity
7,QVQLVESGGGLVQAGGSLRLSCAASGSTFAFYAMGWYRQAPGKEREFVAAITWDGGTTYYADSVKGRFTISLDNAKNTVYLQMNSLKPEDTAVYYCATQYLSYLYAGRYDYWGQGTQVTVSS,low polyreactivity
8,QVQLVESGGGLVQAGGSLRLSCAASGSTFAFYAMGWYRQAPGTERELVAAIRSGGSTNYADSVKGRFTISRDNAKNTVYLQMNSLKPEDTAVYYCAARESDPGSHSVYREDDYWGQGTQVTVSS,low polyreactivity
9,QVQLVESGGGLVQAGGSLRLSCAASGSTFAGNAMGWYIQAPGKERELVAAISSSGAGTYYADSVKGRFTISRDNAKNTVYLLINSLKPADTAVYYCNVGSRALRRRVRSVSFDYWGQGTQVSVSS,low polyreactivity
10,QVQLVESGGGLVQAGGSLRLSCAASGSTFAGNAMGWYRQAPGKERELVAAITWSGGNTNYADSVKGRFTISRDNAKNTVYLQMNSLKPEDTAVYYCASDFSGSLAYDYWGQGTQVTVSS,low polyreactivity
11,QVQLVESGGGLVQAGGSLRLSCAASGSTFAGNEMGWYRQAPGKERELVAAITFSGGRTDYADSVKGRFTISRDNAKNTVYFQINCLKPEDTAVYDCAAPADDTVHYQNYYWGQGTQVSVSS,low polyreactivity
12,QVQLVESGGGLVQAGGSLRLSCAASGSTFAGNGMGWYRQAPGKEGELVAGIDVTGGSTYYADSVKGRFTISRDNAKKTVDLQMNSLKPEDTAVYYCYARYVYHSSFAGFDYWGQGTQVTVSS,low polyreactivity
13,QVQLVESGGGLVQAGGSLRLSCAASGSTFAGYAMGWYIQAPGKERELVASIRSGGSTNYADSVKGRFSISRDNAKNTVYLQMNSLKPEDTAVYYCAARPDQKRYDYWGQGTQVTVSS,low polyreactivity
14,QVQLVESGGGLVQAGGSLRLSCAASGSTFAGYAMGWYRQAPGKERELVATITYSGGTTYYADSVKGRFTISRDTAKNTVFLQMKSLKPEDTAVYYCDNKASYWWGFEYWGQGTQVTVSS,low polyreactivity
15,QVQLVESGGGLVQAGGSLRLSCAASGSTFAGYAMGWYRQEPGKERELVAAISGSGGTTYYADSVKGRFTISRDNAKNTVYLQMNSLKPEDNAVYYCAALRGRYYGGLGDYWGQGTQVTVSS,high polyreactivity
16,QVQLVESGGGLVQAGGSLRLSCAASGSTFAGYAMGWYRQPPGKERELVAAISYSGGTTYYADSVKGRFTISRDNAKNTVYLQMNSLKPEDTAVYYCAARKKFKTPSYDMYYWGQGTQVTVSS,high polyreactivity
17,QVQLVESGGGLVQAGGSLRLSCAASGSTFAINAMGWYRQAPGTERELVAAIRYSTGRTYYADSVKGRFTISRDNAKNTVYLQMNSLKPEDTAVYYCAALGFTKYGSRFDYWGQGTQVTVSS,high polyreactivity
18,QVQLVESGGGLVQAGGSLRLSCAASGSTFAIYAMGWYRQAPAKERELVAAITRGSTSYADSVKGRFTISRDNAKNTVYLQMNSLKPEDTAVYDCAADSSRYGVIRDFDYWGQGTQVTVSS,high polyreactivity
19,QVQLVESGGGLVQAGGSLRLSCAASGSTFAIYAMGWYRQAPGKERELVAAITGRSGSTYYADSVKGRFTISRDNAKNTVYLQMNSLKPEDTAVYYCAAQGGYRRTPYIHRDYWGQGTQVTVSS,high polyreactivity
20,QVQLVESGGGLVQAGGSLRLSCAASGSTFAIYAMGWYRQAPGKERELVAAITRGSTSYADSVKGRFTISRDNAKNTVYLQMNCLKPEDTAVYYCAAEYFLAQVYIYGYWGQGTQVTVSS,high polyreactivity
21,QVQLVESGGGLVQAGGSLRLSCAASGSTFAIYGMGWYRQAPGKERELVAGITRGGSTNYADSVKGRFTISRDNAKNTVYLQMNSLKPEDTAVYYCNKVQRSTYYNGYDYWGQGTQVTVSS,high polyreactivity
22,QVQLVESGGGLVQAGGSLRLSCAASGSTFAKYAMGWYRQAPGKERELVASIRLSGGSTYYADSVKGRFTISRDNAKNTVYLQMNSLKPEETAVYYCNKQFATFYYCFDYYYWGQGTQVTVSS,low polyreactivity

row,Sequence,polyreactivity (PSR sort gate)
1,QVQLVESGGGLVQAGGSLRLSCAASGSTFAKYVMGWYRQAPGKERELVAAISRRGSSTYYADSVKGRFTISRDNAKNTVYLQMNSLKPEDTAVYYCAARFRYSGFEGMDYWGQGTQVTVSS,high polyreactivity
2,QVQLVESGGGLVQAGGSLRLSCAASGSTFALYAMGWYRQAPGKERELVAAITRGDRTYYADSVKGRFTISRDNAKNTVYLQMNSLKAEDSAVYYCAAGYFGLWVRYDYWGQGSQVTVSS,low polyreactivity
3,QVQLVESGGGLVQAGGSLRLSCAASGSTFALYAMGWYRQAPGKERELVAVITSGGSTYYADSVKGRFTISRDNAKNTVYLQMNSLKPEDTAVYYCAARRHVRKGPLGYWGQGTQVTLSS,high polyreactivity
4,QVQLVESGGGLVQAGGSLRLSCAASGSTFAPNAMGWYRQAPGKERELVAGISWGDSTYYADSVKGRFTISRDNAKNTVYLQMNSLKPEDTAVYYCNVDDPFYSGVVEFDYWGQGTQVTVSS,low polyreactivity
5,QVQLVESGGGLVQAGGSLRLSCAASGSTFAPNTMGWYRQAPGKERELVAGITDGTITTYADSVKGRFTISRDNAKNTVYLQMNSLKPEDTAVYYCATRQSWYPRWMDYWGQGTQVTVSS,high polyreactivity
6,QVQLVESGGGLVQAGGSLRLSCAASGSTFAPYAMGWYRQAPGKETELVARITGSGGGTTYADSVKGRFTISRDNAKNTVYLQMNSLKPEDTAVYYCAAPRASQYGDDYWGQGTQVTVSS,high polyreactivity
7,QVQLVESGGGLVQAGGSLRLSCAASGSTFAQYAMGWYRQAPGKERELVAAISRGGGSTYYADSVKGRFTISRDNAKNTVYLQMNSLKPEDTAVYYCNARTSHYDKYGYWGQGTQVTVSS,high polyreactivity
8,QVQLVESGGGLVQAGGSLRLSCAASGSTFARNAMGWFRQAPGKEREFVASIRWGRGTTYYADSVKGRFTNSRDNAKNTLYLQLNSMIPEDSAVYYCATRNSSKRRGYYYWGQGTQVNVSS,high polyreactivity
9,QVQLVESGGGLVQAGGSLRLSCAASGSTFARNAMGWYRQAPGKERELVAAISSGGTTNYADSVKGRFTISRDNAKNTVYLQMNSLKPEDTAVYYCNAGFRNVLTSGYLYDYWGQGTQVTVSS,low polyreactivity
10,QVQLVESGGGLVQAGGSLRLSCAASGSTFASNAMGWYRQAPGKARELVAGISSSDGGTYYADSVKGRFTISRDIAKYNVYLEMKSLKPEDTAVYSCNAPPGTFQWQGHSDYWGQGTEVTVSS,low polyreactivity
11,QVQLVESGGGLVQAGGSLRLSCAASGSTFASNVMGWYRQAPGKERELVAAITRGDRTHYADSVKGRFTISRDNAKNTVYLQMNSLKPEDTAVYYCAARFIFWVYDYDYWGQGSQVTVSS,low polyreactivity
12,QVQLVESGGGLVQAGGSLRLSCAASGSTFASYAMGWYRQAPGKERELVAAIRWRGGTTYYADSVKGRFTISRDNAKNTVYLQMNSLKPDDTAVYYCNADRYYLYYYWGQGTQVTVSS,low polyreactivity
13,QVQLVESGGGLVQAGGSLRLSCAASGSTFATYAMGWYRPAPGKERELVAAITRGGRTNYADSVKGRFTISRDNAKNTVYLQMNSLKPEDTSVYYCAADYIYGYFWRFGYWGQGTQVTVSS,low polyreactivity
14,QVQLVESGGGLVQAGGSLRLSCAASGSTFATYAMGWYRQAPGKERELVAVITRGGRTYYADSVKGRFTISRDNAKNTVYLQMNSLKPEDTAVYYCAAKAYTYYARIGFDYWGQGTQVTVSS,high polyreactivity
15,QVQLVESGGGLVQAGGSLRLSCAASGSTFAVNAMGWYRQAPGKERELVAAISGSGGRTYYADSVKGRFTISRDNAKNTVYLQMNSLKPEETAFYYCATELRAPYRSSGAYHYDYWGQGTQVTVSS,low polyreactivity
16,QVQLVESGGGLVQAGGSLRLSCAASGSTFAYNAMGWYIQAPGKERELVAAISTSGGSTNYADSVKGRFTISRDMSKNTVYLQMNSLKPEVTAVYFCAARPKTPSITRYGYWGQGTHVTVSS,high polyreactivity
17,QVQLVESGGGLVQAGGSLRLSCAASGSTFAYNAMGWYRQAPGKERELVARISSSGDITYYADSVKGRFTISRDNAKNTVYLQMNCLKPEDTAVYYCAKRYLTRYKGYYYWGQGTQVTVSS,high polyreactivity
18,QVQLVESGGGLVQAGGSLRLSCAASGSTFAYNDMGWYRQAQGKERELVADIRSGGNTYADSVKGRFTISRDNAKNTVYLQMNSLKPVDTAVYYCAVDGGEFSSYGYWGQGTQLTVSS,low polyreactivity
19,QVQLVESGGGLVQAGGSLRLSCAASGSTFAYNTMGWYRQAPGKERELVAAISQRGGSTYADSVKGRFTISRDNAKNTVYLQMNSLKPEETAVYYCAAVGYTYKFDYWGQGTQVTVSS,low polyreactivity
20,QVQLVESGGGLVQAGGSLRLSCAASGSTFAYYAMGWYRQAPGKERELVAAISRTGGSTYYADSVKGRFTISRDNAKNTVYLQMNSLKPEDTAVYYCNARAPVGTFDYDYWGQGTQVTVSS,low polyreactivity
21,QVQLVESGGGLVQAGGSLRLSCAASGSTFAYYAMGWYRQAPGKERELVAAISSGGSTYYADSVKGRFTISRDNAKNTVYLQMNSLKPEDTAVYYCNKLWVGKFKRYEFGYWGQGTQVTVSS,low polyreactivity
